Experimental data: patent US20150376294A1 (RIGSHOSPITALET, published 2015)
Changes are numbered by the printed parent chain.

B1: mAb #6 (antibody, V domains shown)
VH: EVQLQQSGPDLVKPGASVKISCKASGYSFTAYYMHWVKQSHGESLEWIGRVNPNNGGSSYNQKFKGKAILTVHKSSNTAYMELRSLTSEDSAVYFCARGDYLPSLGYWGQGTSVTVSS
VL: DIVMTQSQKFMSTSVGDRVSVTCKASQNVDTTVAWYQQKPGQSPKALIYSASYRYSGVPDRFTGSGSGTDFTLTVTNVQSEDLAEYFCQQYDSYPFTFGSGTKLEIK
notes: Mouse IgG monoclonal antibody, unknown subtype; raised against rabbit PAD2
B2: mAb #34 (antibody, V domains shown)
VH: EVQLQQSGPDLVKPGASVKISCKASGYSFTSYYMHWVKQSHGKSLEWIGRVNPNSGYTTYNQKFKGKAILTVDKSSSTAYMELRSLTSEDSAVYYCARGDYLPSMDYWGHGTSVTVSS
VL: B1 VL with I2F, V21I, D30G, T32N, A46G, V75I, T76S, Y91F, D92N
notes: as for B1
B3: mAb #2 (antibody, V domains shown)
VH: QVQLQQPGAELVRPGASVKLSCKASGYTFTSYWMNWVKQRPGQGLEWIGMIDPSDSESYYNQMFKDKATLTVDKSSSTAYMQLSRLTSEDSAVYYCARKDYYAYGGAMDYWGQGTSVTVSS
VL: QIVLTQSPAILSASLGEEITLTCSANSSARYMHWYQQKSGTSPKLLIYSTSNLASGVPSRFSGSGSGTFYSLTLSSVEAEDAADYYCHQWSGYPTFGGGTKLEIKR
notes: as for B1

Experiments:
[1] = target: T1, human recombinant PAD4 (hrPAD4) (human, UniProt Q9UM07 1-663); experiment: indirect ELISA, hrPAD4 coat 50 ng/mL
T1 construct: Recombinant, provided by Ger Pruijn; also called hPAD4; human PAD4
T1 sequence (Q9UM07 whole entry): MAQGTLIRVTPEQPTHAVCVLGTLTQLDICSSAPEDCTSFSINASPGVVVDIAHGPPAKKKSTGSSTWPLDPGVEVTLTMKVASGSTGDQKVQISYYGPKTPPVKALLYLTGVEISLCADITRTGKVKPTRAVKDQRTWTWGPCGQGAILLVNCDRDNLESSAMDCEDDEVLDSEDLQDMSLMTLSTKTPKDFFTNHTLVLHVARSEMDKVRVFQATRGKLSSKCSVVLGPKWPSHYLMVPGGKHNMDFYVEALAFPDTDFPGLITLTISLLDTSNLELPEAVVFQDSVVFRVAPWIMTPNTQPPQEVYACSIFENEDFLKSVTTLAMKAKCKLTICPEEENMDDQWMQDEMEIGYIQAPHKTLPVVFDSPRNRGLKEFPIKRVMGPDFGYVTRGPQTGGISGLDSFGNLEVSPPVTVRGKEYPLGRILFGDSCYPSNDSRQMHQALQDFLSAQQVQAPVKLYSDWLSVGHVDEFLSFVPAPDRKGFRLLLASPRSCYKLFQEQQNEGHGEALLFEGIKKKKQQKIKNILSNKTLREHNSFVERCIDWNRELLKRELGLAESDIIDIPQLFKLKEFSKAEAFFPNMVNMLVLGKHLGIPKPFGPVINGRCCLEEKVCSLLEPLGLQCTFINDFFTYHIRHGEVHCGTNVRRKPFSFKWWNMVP

[2] = target: N343 (from amino acid 343 to the C-terminus) (human, UniProt Q9Y2J8 343-665); experiment: western blotting
Sequence of N343 (from amino acid 343 to the C-terminus) (Q9Y2J8 343-665): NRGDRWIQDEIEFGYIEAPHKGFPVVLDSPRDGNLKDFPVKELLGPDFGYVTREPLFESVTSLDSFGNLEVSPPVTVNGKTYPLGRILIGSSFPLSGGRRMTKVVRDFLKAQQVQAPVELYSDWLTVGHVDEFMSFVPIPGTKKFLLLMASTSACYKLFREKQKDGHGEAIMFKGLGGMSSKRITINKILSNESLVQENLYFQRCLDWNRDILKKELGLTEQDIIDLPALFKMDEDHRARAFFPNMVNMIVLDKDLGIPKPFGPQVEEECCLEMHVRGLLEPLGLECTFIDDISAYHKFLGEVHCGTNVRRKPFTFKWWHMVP
Method: (§1) Different samples were loaded in gels (same procedure as SDS-PAGE) along with a pre-stained marker. […] The membrane was blocked in wash buffer and sliced into strips. Antibody culture supernatant (2 mL) was added 1:1 in diluting buffer and incubated 0/N at 4° C. HRP-conjugated rabbit anti mouse IgG was added 1:3000 followed by incubation 1 h/RT. Finally, the strips were washed, incubated 10 min in acetate buffer (50 mM CH3COOH, 33.75 mM NaOH, pH 5.0) and stained in carbazole staining solution (0.04% 3-amino-9-ethylcarbazole and 0.015% H2O2) in acetate buffer. Antibodies with affinity against the target protein were observed as red bands, and the approximate size could be held against the marker loaded on the gel.
(§2) Different splice variants of PAD2 were evaluated by western blotting.

[3] = target: T2, N165 (from amino acid 165 to the C-terminus) (human, UniProt Q9Y2J8 165-665); experiment: western blotting
T2 construct: also called N165 splice variant
T2 sequence (Q9Y2J8 165-665): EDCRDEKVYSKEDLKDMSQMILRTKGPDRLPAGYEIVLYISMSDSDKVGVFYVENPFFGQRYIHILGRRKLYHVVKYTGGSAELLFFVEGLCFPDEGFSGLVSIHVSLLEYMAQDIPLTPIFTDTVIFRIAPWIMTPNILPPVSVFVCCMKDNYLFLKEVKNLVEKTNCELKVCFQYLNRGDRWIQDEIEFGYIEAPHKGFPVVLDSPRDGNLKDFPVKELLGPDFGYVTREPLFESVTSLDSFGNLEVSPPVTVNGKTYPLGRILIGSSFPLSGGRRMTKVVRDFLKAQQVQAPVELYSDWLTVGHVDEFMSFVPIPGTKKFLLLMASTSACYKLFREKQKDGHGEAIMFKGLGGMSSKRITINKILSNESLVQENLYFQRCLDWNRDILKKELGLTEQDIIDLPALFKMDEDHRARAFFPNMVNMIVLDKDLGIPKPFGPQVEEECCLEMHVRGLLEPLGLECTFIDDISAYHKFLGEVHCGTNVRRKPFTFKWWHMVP
Method: as §1, §2

[4] = target: T3, Peptidylarginine Deiminase isolated from rabbit skeletal muscle (rPAD2) (rabbit, UniProt P20717 1-665 (rat entry), limits assumed); experiment: western blotting, rPAD2
T3 construct: Bought (Sigma-Aldrich), isolated from rabbit skeletal muscle; also called Rabbit PAD2; rabbit PAD2
T3 chain: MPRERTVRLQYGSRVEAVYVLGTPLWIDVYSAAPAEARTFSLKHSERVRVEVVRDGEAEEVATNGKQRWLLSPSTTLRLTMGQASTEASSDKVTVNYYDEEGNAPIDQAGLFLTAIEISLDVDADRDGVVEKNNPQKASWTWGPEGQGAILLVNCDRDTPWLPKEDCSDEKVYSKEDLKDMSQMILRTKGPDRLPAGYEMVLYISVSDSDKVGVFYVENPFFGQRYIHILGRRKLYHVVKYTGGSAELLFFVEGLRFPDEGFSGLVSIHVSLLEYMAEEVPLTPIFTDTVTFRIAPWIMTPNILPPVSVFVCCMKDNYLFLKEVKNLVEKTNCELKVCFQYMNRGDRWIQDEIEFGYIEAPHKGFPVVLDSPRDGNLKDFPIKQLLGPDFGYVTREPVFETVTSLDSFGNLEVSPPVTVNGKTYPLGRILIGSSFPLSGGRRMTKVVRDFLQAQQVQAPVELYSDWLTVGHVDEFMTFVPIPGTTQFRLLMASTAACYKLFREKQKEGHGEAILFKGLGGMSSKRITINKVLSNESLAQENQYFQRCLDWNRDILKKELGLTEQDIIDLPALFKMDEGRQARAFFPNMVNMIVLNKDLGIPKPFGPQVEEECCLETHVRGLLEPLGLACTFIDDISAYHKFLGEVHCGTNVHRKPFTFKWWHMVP
Method: FIG. 2. mAbs (monoclonal antibodies) reacting with rPAD2 in western blotting. Culture supernatants from mAbs #1-30, an irrelevant mAb (A) and no mAb (B) were tested 1:1 in diluting buffer against 1 μg/mL rabbit PAD2-unreduced. Rabbit anti mouse IgG (diluted 1:1000) was added, 1 h/RT. Development was performed in carbazole staining solution. Molecular weight markers (kDa) are indicated in the middle of the blot with Novex® Sharp Pre stained Protein Standard. A 4-12% Bis-Tris zoom gel was used.
as §1

Row | binding result [1] | binding result [2] | binding result [3] | binding result [4] | Binder
1 | no binding | no binding | – | – | B1
2 | no binding | no binding | – | – | B2
3 | no binding | no binding | no binding | binds | B3
